Assay [1] deals with T1, purified His-tagged septin 7 (full length) (UniProt Q16181 1-437).
T1 sequence: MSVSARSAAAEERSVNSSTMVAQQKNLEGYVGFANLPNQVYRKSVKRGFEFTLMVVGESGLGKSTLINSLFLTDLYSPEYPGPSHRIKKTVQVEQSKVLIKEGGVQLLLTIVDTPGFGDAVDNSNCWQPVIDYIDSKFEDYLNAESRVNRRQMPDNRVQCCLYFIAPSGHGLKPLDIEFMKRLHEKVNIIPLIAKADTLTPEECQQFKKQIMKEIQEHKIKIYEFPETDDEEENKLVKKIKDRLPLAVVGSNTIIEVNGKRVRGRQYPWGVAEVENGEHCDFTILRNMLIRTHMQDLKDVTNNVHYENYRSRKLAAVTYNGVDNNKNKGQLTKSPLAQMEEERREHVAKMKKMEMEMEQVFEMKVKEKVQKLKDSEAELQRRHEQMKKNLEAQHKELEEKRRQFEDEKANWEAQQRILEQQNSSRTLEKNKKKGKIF
Put plainly: proteoliposome coflotation.

In assay [2] the target is T1, purified His-tagged septin 7 (full …). Put plainly: BLI.
The target of assay [3] is T2, SEPT7-ΔCC (septin 7 residues 1-331, lacking the coiled coil domain), His-tagged (UniProt Q16181 1-331).
T2 sequence: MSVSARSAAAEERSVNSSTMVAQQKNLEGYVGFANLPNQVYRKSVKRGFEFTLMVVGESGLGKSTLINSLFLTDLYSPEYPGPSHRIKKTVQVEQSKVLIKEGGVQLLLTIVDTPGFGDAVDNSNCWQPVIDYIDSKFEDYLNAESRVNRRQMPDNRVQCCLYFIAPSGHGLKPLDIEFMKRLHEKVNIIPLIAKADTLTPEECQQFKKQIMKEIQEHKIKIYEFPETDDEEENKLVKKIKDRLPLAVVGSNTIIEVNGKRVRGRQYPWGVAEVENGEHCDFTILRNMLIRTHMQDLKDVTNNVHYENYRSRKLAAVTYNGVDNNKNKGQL
The assay can be described thus: BLI.

No end group written: not given here.

B1: FIT2-Strep-His8-GFP fusion protein, reconstituted into proteoliposomes (natural protein)
chain: MEHLERCEWLLRGTLVRAAVRRYLPWALVASMLAGSLLKELSPLPESYLSNKRNVLNVYFVKVAWAWTFCLLLPFIALTNYHLTGKAGLVLRRLSTLLVGTAIWYICTSIFSNIEHYTGSCYQSPALEGVRKEHQSKQQCHQEGGFWHGFDISGHSFLLTFCALMIVEEMSVLHEVKTDRSHCLHTAITTLVVALGILTFIWVLMFLCTAVYFHNLSQKVFGTLFGLLSWYGTYGFWYPKAFSPGLPPQSCSLNLKQDSYKK
B1: in assay [1], the binding result is “binds”.

B2: biotinylated FIT2 N-terminal loop peptide (NTL, residues 1-23) (peptide)
peptide: MEHLERCEWLLRGTLVRAAVRRY
modifications: also: biotinylated, site not given here
Regarding B2, the binding result in assay [2] and in assay [3] was “binds” in each case.
